Reference: US20130058935A1 (INSTITUTE FOR CANCER RESEARCH, published 2013)

Molecular target: T1, mouse TEM7R extracellular domain, 6xHis-tagged, secreted (mouse, UniProt Q9DC11 31-455)
T1 construct: extracellular domain; also called mTEM7R ECD; TEM7R ECD; not shown: 6xHis tag from the pSecTag2/Hygro A vector
Experiment: SPR (BIAcore), ECD immobilised on CM5 chip, 1:1 Langmuir fit
Method: scFvs were expressed in E. coli and purified by sequential IMAC and size exclusion chromatography (Robinson, M K et al. (2005) Cancer Research 65:1471-8). Binding of the TEM7R scFv, to extracellular domain (ECDs) was characterized by SPR using TEM7R ECD as the target antigen (Yuan, Q A et al. (2006) Mol. Cancer Ther. 5:2096-105). ECD was diluted to 10 μg/mL in 10 mM sodium acetate pH 5.2 and approximately 200 RU of ECD were immobilized onto CM5 sensor chips via NHS-ester chemistry.
Kinetic constants for A5 were determined by passing serially diluted samples (0 nM to 2 μM) over flow cells at flow rate of 40 μL/min. Response against an ErbB2 coated flow cell was used as a negative control and subtracted from the response generated against the TEM7R ECD to obtain the final sensorgrams. Data was evaluated using BIAEvaluation 3.2 software (BIAcore, Piscataway, N.J.) and fit using the 1:1 Langmuir binding model. Flow cells were regenerated by sequential 15-second pulses with 10 mM glycine, pH 2 and 50 mM Triethylamine, pH 10 followed by equilibration with PBS running buffer.

T1 sequence (Q9DC11 31-455): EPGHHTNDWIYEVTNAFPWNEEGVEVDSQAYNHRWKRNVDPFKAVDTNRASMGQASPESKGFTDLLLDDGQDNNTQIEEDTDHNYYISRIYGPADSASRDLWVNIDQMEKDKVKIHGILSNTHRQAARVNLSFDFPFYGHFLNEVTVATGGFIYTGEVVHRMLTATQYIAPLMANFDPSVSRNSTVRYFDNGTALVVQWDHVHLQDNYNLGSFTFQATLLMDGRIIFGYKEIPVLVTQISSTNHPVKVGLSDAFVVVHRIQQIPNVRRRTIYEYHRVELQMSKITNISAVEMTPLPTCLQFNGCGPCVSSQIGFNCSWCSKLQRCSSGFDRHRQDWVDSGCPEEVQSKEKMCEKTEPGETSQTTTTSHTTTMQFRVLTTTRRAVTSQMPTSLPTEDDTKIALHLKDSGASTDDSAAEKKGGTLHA

B1: anti-mTEM7R scFv#4 (scFv)
scFv: MAQVQLVESGGGLVQPGGSLRLSCAASGFTFSSYEMNWVRQAPGKGLEWVSYISSSGSTIYYADSVKGRFTISRDNSKNTLYLQMNSLRAEDTAVYYCASGDYMDVWGQGTTVTVSSSASGAELGGGGSGGGGSGGGGSTSDIQLTQSPSSLSASVGDRVTITCQASQDISNYLNWYQQKPGKAPKLLMYDASNLETGVPSRFSGSGSGTDFTFTISSLQPEDFATYYCQQSDNLPYTFGQGTKVDIKRS
notes: Human scFv from a naive phage library, expressed in E. coli TG1 (pUC119mycHis / pSYN2) and purified by Ni-NTA, so it carries a His tag; also called clone 4; anti-TEM7R scFv
Kd: 10 nM
